# Assay results published in paper PMC3920632, “bkaR is a TetR-type repressor that controls an operon associated with branched-chain keto-acid metabolism in Mycobacteria”.
# T1: His6-BkaRMtb (Mycobacterium tuberculosis H37Rv, UniProt O06169 1-215)
# T1 sequence: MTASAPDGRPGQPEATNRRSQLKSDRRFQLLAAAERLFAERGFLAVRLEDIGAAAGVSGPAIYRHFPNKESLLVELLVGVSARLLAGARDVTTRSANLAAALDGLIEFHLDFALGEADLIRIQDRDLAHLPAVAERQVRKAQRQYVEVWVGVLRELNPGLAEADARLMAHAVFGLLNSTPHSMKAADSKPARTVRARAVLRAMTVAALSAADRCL
# Tests used:
# His6-BkaRMtb [1] = molecular target: T1, His6-BkaRMtb; experiment: EMSA; 20 mM HEPES pH 7.6, 1 mM EDTA, 10 mM ([…]; temperature not stated; conditions: protein: recombinant, tags: His6 (pNIC28-Bsa4, GenBank EF198106), chain copies: 2, blunt
# His6-BkaRMtb [2] = molecular target: T1, His6-BkaRMtb; experiment: EMSA; 0.6 uM protein, 0.06 uM DNA; 20 mM HEPES pH 7.6, 1 mM EDTA, 10 mM ([…]; temperature not stated; conditions: protein: recombinant; tags: His6 (pNIC28-Bsa4, GenBank EF198106); chain copies: 2; blunt
Binder,binding result (His6-BkaRMtb [1]),other results
MSMEG_4524 motif probe (dsDNA) DNA 1: CAGCAAGTAAATGTAGCCTAACCTAGCTACG DNA 2: CGTAGCTAGGTTAGGCTACATTTACTTGCTG,no binding,–
MSMEG_3415 motif probe (dsDNA) DNA 1: TACTTCTGAAATAGTTTTGGCTAACCTGGAC DNA 2: GTCCAGGTTAGCCAAAACTATTTCAGAAGTA,no binding,–
Rv0575c motif probe (dsDNA) DNA 1: ACGCCAATACGTTAGCGCTCACTAACGTATTG DNA 2: CAATACGTTAGTGAGCGCTAACGTATTGGCGT,no binding,–
MSMEG_4920 motif probe (dsDNA) DNA 1: GCTGTGTTAACGATGATTAACCGGCACAGC DNA 2: GCTGTGCCGGTTAATCATCGTTAACACAGC,–,binding result (His6-BkaRMtb [2]): binds
MSMEG_3414 motif probe (dsDNA) DNA 1: TCGGTCCAGGTTAGCCAAAACTATTTCAGAA DNA 2: TTCTGAAATAGTTTTGGCTAACCTGGACCGA,no binding,–
Rv0576 motif probe (dsDNA) DNA 1: GATCAATACGTTAGTGAGCGCTAACGTATT DNA 2: AATACGTTAGCGCTCACTAACGTATTGATC,no binding,–
probe 1 (bkaRMtb/fadD35) (dsDNA) DNA 1: TCGTGCTACGTTAGTGACGATTAACCGAAG DNA 2: CTTCGGTTAATCGTCACTAACGTAGCACGA,–,binding result (His6-BkaRMtb [1]; label: DIG-11-ddUTP 3' end): binds
scoA motif probe (dsDNA) DNA 1: CTCACCTCAGTTAATGATAATTAACTGAAA DNA 2: TTTCAGTTAATTATCATTAACTGAGGTGAG,–,binding result (His6-BkaRMtb [2]): binds
